Source: patent US20200062827A1

How the values were obtained:
[1] = target: therapeutic human IgG1 (Bristol-Myers Squibb) (human); assay: affinity precipitation: 5 mM C12-Z33 + 20 µM IgG1, 0.6 M Na2SO4, centrifugation, A280 of supernatant
[2] = target: therapeutic human IgG1 (Bristol-Myers Squibb) (human); assay: ITC, 15 C, PBS pH 7.4, reported per ligand
[3] = target: therapeutic human IgG1 (Bristol-Myers Squibb) (human); assay: ITC, 15 C, PBS pH 7.4, reported per IgG1

Row | percent IgG1 removed from the supernatant [1] [%] | -TΔS° (kcal · mol^-1) [2] | Kd [2] [nM] | ΔG° (kcal · mol^-1) [2] | ΔH° (kcal · mol^-1) [2] | -TΔS° (kcal · mol^-1) [3] | ΔG° (kcal · mol^-1) [3] | ΔH° (kcal · mol^-1) [3] | Substance
1 | > 60 |  |  |  |  |  |  |  | C12-Z33 immuno-amphiphile (peptide)
2 |  | 13.6 | 60 | -9.5 | -23.1 | 43.4 | -10 | -53.4 | Z33 peptide
